This note sets out measurements from article PMC3912440 (Scientific Reports, 2014).

The assay relates to Mononuclear cell-derived human myeloid dendritic cells. The format is cell-based. The following applies: 0.02 μM HagB alone.

B1: HagB: recombinant hemagglutinin B of P. gingivalis, 49.0 kDa protein composed of 350 amino acid residues (protein)
chain: MTVENLRLQRLQNLEHYRFAKNVLTLCRTANIAKLNPKLPELEKAIEMEDLALNPPVANELTPQVIALDEERDRAYQALMSRVRSYAFDEDSQLRNAAARIEDVAARYGNVIRMNYDKETAAIENFLTDLKGENIRPLVTKLGVTALVDRLEKNNKAFADFFLRRLSTDQRGKYDVKALRAETDRTLVAVVRRMDSIDDMEPSPEIRALIELYNRLVANRRALLARRASYGEAAVEKRRAEIAEMLRPLLARIVEEKKTAVFAGRTLGTGKNRHYLITFVAENGDEEDRWYRINGEQLVYVPEDELPKPKKKKKPASSTDTPSEPPVLPDPSQGGSSSGGGEQGSTGGGL
modifications: left off: His6 (from the vector pQE31), end not stated, state not stated
As for B1, the “CCL3/MIP-1α, CCL4/MIP-1β, and TNFα responses induced” value was “strong”; the CSF2/GM-CSF response induced result is “weaker”.
